In one assay the target is T1, CD40 on BJAB B cells (human, UniProt P25942 21-277).
T1 construct: whole, on cells; also called CD40-positive human BJAB B cell line
The assay can be described thus: flow cytometry, competition with sCD40L-Alexa on BJAB cells. (In flow cytometry, cells or beads pass a laser one at a time.)

Assay [1] has as its target T2, α5β1 integrin on cells (U937 and other CD40-negative cell lines) (human, UniProt P08648 42-1049; P05556 21-798).
T2 construct: whole, on cells; U937 cells are CD40-negative; also called VLA-5; CD49e/CD29
The assay can be described thus: flow cytometry, competition with sCD40L-Alexa on U937 cells.

For assay [2], the target named is T2, α5β1 integrin on cells (U937 and other …). The assay is described as follows: cell-based or functional assay.

Changes are numbered by the printed parent chain. In names and notes the source's numbering stands.

T2 sequence (P08648 42-1049, chain 1 of 2): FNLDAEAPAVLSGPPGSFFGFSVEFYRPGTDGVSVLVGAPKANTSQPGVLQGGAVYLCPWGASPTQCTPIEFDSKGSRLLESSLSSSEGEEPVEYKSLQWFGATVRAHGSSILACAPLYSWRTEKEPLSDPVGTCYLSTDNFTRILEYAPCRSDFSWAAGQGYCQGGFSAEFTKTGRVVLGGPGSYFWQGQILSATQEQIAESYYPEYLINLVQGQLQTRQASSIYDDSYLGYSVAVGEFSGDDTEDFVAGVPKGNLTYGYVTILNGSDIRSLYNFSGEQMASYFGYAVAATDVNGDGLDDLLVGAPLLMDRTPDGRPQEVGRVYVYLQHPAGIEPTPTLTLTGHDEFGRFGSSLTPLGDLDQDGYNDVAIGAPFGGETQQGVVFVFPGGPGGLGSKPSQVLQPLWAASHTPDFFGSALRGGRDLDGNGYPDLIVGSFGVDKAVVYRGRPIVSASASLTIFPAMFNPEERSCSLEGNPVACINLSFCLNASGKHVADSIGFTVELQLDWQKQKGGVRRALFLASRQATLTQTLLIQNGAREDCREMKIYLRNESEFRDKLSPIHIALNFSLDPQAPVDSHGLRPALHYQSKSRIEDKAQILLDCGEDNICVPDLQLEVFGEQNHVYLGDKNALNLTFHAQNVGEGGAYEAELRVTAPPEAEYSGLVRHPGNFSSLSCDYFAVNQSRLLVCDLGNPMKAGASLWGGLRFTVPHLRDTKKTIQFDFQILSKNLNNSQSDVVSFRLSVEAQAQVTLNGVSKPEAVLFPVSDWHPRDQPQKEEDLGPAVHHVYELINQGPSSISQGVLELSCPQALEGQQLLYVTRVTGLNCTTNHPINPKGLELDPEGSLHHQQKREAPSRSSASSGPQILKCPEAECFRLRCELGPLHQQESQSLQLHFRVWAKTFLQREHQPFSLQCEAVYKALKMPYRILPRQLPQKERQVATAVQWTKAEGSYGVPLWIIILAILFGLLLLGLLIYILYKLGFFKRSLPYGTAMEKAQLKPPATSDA
T2 sequence (P05556 21-798, chain 2 of 2): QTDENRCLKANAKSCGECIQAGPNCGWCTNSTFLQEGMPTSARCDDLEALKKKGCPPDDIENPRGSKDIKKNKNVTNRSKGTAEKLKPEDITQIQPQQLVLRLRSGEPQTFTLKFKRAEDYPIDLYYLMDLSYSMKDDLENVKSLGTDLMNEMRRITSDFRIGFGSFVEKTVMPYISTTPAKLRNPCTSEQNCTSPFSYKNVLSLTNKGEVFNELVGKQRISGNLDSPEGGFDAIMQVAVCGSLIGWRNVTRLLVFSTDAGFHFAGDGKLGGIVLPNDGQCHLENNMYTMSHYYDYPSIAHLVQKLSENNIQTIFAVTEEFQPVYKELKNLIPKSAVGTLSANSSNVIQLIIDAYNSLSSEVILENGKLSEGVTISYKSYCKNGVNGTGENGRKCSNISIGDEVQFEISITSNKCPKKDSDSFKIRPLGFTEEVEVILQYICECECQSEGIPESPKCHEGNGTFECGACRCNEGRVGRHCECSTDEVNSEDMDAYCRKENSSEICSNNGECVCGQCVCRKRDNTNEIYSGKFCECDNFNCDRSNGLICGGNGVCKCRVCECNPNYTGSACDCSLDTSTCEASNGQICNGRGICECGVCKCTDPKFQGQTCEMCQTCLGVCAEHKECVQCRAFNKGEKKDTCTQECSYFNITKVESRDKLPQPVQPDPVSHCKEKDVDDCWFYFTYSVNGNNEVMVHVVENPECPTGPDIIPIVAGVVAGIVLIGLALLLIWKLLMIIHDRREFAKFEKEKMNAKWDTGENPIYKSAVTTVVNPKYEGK
T1 sequence (P25942 21-277): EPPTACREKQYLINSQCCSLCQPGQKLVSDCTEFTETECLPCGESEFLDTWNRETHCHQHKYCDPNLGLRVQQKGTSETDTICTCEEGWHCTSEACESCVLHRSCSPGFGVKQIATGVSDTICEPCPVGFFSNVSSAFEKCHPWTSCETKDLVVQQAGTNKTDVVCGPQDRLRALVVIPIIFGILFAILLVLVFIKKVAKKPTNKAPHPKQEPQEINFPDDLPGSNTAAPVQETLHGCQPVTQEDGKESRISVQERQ

B1: CD40L Y170A (monomeric soluble human CD40L mutant) (ligand)
chain: MQKGDQNPQIAAHVISEASSKTTSVLQWAEKGYYTMSNNLVTLENGKQLTVKRQGLYAIYAQVTFCSNREASSQAPFIASLCLKSPGRFERILLRAANTHSSAKPCGQQSIHLGGVFELQPGASVFVNVTDPSQVSHGTGFTSFGLLKL
notes: Made in Drosophila S2 cells from the soluble human CD40L construct M113 to L261 with Y170 changed to alanine; Numbering of Y170 is that of full-length human CD40L; also called hsCD40LY170A; hCD40L mutated in its Y170 residue; not shown: C-terminal V5 / hexahistidine tag from the pMT-BiP/V5-His A vector
Regarding B1, the binding result (with CD40 on BJAB B cells; in assay [1]) was “binds” each time.

B2: CD40L G227A (monomeric soluble human CD40L mutant) (ligand)
chain: B1 chain with A58Y, G115A
notes: Made in Drosophila S2 cells from the soluble human CD40L construct M113 to L261 with G227 changed to alanine; also called hCD40L mutated in its G227 residue; not shown: C-terminal V5 / hexahistidine tag from the pMT-BiP/V5-His A vector
Turning to B2, the binding result (with CD40 on BJAB B cells; in assay [1]) was “binds” throughout.

B3: Recombinant trimeric soluble CD40L (ligand, UniProt P29965 51-261, looked up)
chain: DKIEDERNLHEDFVFMKTIQRCNTGERSLSLLNCEEIKSQFEGFVKDIMLNKEETKKENSFEMQKGDQNPQIAAHVISEASSKTTSVLQWAEKGYYTMSNNLVTLENGKQLTVKRQGLYYIYAQVTFCSNREASSQAPFIASLCLKSPGRFERILLRAANTHSSAKPCGQQSIHLGGVFELQPGASVFVNVTDPSQVSHGTGFTSFGLLKL
modifications: Alexa Fluor-488 label in the form called rsCD40L-A; unlabelled in the solid phase assay and in cell stimulation
For B3, the “IL-8 mRNA expression (RT-PCR, U937 cells)” value in assay [2] came to 2.5 fold increase.

For the origin of these results see patent US20100150931A1 (CENTRE HOSPITALIER DE L UNIVERSITE DE MONTREAL, published 2010).
